Source: US12024547B2, “KLK5 inhibitory peptide” (DAIICHI SANKYO COMPANY, LIMITED, priority 2018, dated 2024)

T1: KLK5 (Homo sapiens, UniProt Q9Y337)
T1 construct: “Active KLK5” means active KLK5, which is composed of a domain having a protease activity; His tag (C); FLAG (Gly-DYKDDDDK before the His tag); made in house; host or cells: Expi293F cells
T1 sequence (Q9Y337 67-293): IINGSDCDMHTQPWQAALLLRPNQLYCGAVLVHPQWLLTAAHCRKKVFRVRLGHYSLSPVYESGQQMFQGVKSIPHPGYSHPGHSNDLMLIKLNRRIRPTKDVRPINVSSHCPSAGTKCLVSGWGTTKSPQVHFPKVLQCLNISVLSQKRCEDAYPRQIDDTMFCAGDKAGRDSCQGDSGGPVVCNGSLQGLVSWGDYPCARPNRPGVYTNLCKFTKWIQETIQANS

T2: human KLK14 (Homo sapiens, UniProt Q9P0G3)
T2 construct: His tag (C); FLAG (Gly-DYKDDDDK before the His tag); made in house; host or cells: Expi293F cells
T2 sequence (Q9P0G3 25-251): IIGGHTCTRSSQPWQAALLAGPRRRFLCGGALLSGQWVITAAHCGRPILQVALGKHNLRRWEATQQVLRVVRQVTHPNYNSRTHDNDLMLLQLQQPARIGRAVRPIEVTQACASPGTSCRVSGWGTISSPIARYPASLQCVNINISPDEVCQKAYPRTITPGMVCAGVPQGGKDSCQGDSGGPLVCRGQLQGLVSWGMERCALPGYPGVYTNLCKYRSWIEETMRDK


Legend:
[1] = molecular target: T1, KLK5; experiment: KLK5 binding activity of KLK5 inhibitory peptide, surface plasmon resonance (biotinylated KLK5 captured, peptide as analyte); conditions: BIAcore T 200, single cycle kinetics
Experimental: In order to measure the binding affinity of the KLK5 inhibitory peptides, surface plasmon resonance analysis was conducted using BIAcore T 200 (GE healthcare). A complementary strand of DNA of a streptavidin conjugate was captured by hybridization on Sensor Chip CAP (GE healthcare) on which single-stranded DNA immobilized. Next, KLK5 biotinylated using EZ-Link NHS-PEG4-Biotin (Thermo Fisher Scientific) was captured at a flow rate of 10 μL/min to immobilize about 10 RU. Thereafter, the KLK5 inhibitory peptide, serially diluted 2-fold with HBS-EP (0.625 to 10 nM), was added thereto as an analyte at a flow rate of 30 μL/min. In the BIAcore T 200 Evaluation software (version 2.0), kon and koff were calculated by analysis using Single cycle kinetics in a simple one-to-one Langmuir binding model. The dissociation constant KD was calculated as a ratio of koff/kon. Further, multiple KLK5 inhibitory peptides were measured by regenerating Sensor Chip CAP using a Regeneration buffer attached to a Biotin CAPture Kit (GE healthcare) and repeatedly capturing biotinylated KLK5.

[2] = molecular target: T1, KLK5; experiment: X-ray crystal structure analysis of KLK5/KLK5 inhibitory peptide complex; conditions: resolution 1.8 Å
Experimental: According to the methods described in (1-2) and (2-2), KLK5 inhibitory peptides K51034 and KLK5 having the amino acid sequences shown by the SEQ ID numbers were prepared. After mixing the two under conditions of 50 mM Tris-HCl, 150 mM NaCl, and pH 8.0, a complex was isolated and purified by gel filtration chromatography (Superdex 200 10/300 GL).
The complex solution prepared in (4-1) was concentrated to 12 mg/mL, thereafter mixed with a reservoir solution (0.2 M Magnesium Chloride hexahydrate, 20% PEG3350) at a ratio of 1:1, and crystallized by a vapor diffusion method. The obtained cubic single crystal was immersed in a reservoir solution containing 20% glycerol and thereafter frozen in liquid nitrogen. The frozen crystals were irradiated with X-rays in a cryo-stream to obtain a diffraction image (Hypixel 6000HE/MicroMax007). Scaling data with a maximum resolution of 1.7 Å was obtained by analysis using CrysAlisPro. The phase was determined by the molecular replacement method using KLK5 alone (PDB ID: 2PSX) and SPINK2 alone (PDB ID: 2JXD) as templates. After structural refinement, complex crystals of KLK5/the peptide K51034 were determined at a resolution of 1.8 Å. One molecule each of KLK5 and SPINK2 was contained in a unit cell. […]

[3] = molecular target: T2, human KLK14; experiment: Human KLK14 inhibitory activity, peptide substrate degradation; assay type: biochemical; conditions: KLK5 inhibitory peptide; hKLK14 0.2 μg/mL, substrate 100 μM
Experimental: The substrate peptide was dissolved in DMSO to 10 mM and diluted with an assay buffer (50 mM Tris-HCl, 150 mM NaCl, pH 8.0) for use. 25 μL each of human/mouse KLK5, human/mouse KLK7, or human/mouse KLK14 and the inhibitory peptide diluted with the assay buffer were mixed, followed by a reaction at 37° C. for 20 minutes. Thereafter, 50 μL of a substrate diluted with the assay buffer was added thereto, and the fluorescence signal was measured using Enspire (PerkinElmer). The combinations of the enzyme and the substrate used were as follows.
Evaluation of Human KLK14 inhibitory activity: hKLK14 with a final concentration of 0.2 μg/mL, a substrate peptide Boc-Val-Pro-Arg-AMC with a final concentration of 100 μM (R&D Systems, Inc.), and a fluorescence signal with excitation at 380 nm/emission at 460 nm
The average value of three independent experiments was used to calculate the IC50 value.
According to the method described in Example 3-1, the inhibitory activities of each KLK5 inhibitory peptide Fc fusion against human/mouse KLK5, human/mouse KLK7, and human/mouse KLK14 were evaluated. […] The average value of three independent experiments was used to calculate the IC50 value.

Row | Koff [1] | IC50 [3] | Molecule | binding site on KLK5 in complex crystal [2]
1 | 2.2e-05 s⁻¹ | – | K51072: KLK5 inhibitory peptide (SPINK2 mutant), amino acid sequence SEQ ID NO: 10 (protein) GPQFGLFSKYRTPNCQEDMTEYCARDFDPVCGSDMSTYANECTLCMKIREGGHNIKIIRNGPCGG | –
2 | 3.5e-05 s⁻¹ | – | K51034: KLK5 inhibitory peptide (SPINK2 mutant), amino acid sequence SEQ ID NO: 14 (protein) GPQFGLFSKYRTPNCGRYTTGGCNKEYEPVCGSDMSTYANECTLCMKIREGGHNIKIIRNGPCGG | bound to a region containing the KLK5 enzyme's active site
3 | 1.8e-05 s⁻¹ | – | K50098: KLK5 inhibitory peptide (SPINK2 mutant), amino acid sequence SEQ ID NO: 20 (protein) GPQFGLFSKYRTPNCTSQTLGSCSREYDPVCGSDMSTYANECTLCMKIREGGHNIKIIRNGPCGG | –
4 | 2e-05 s⁻¹ | – | K51028: KLK5/KLK7 inhibitory peptide (SPINK2 mutant), amino acid sequence SEQ ID NO: 22 (protein) GPQFGLFSKYRTPNCYQYRSKGCTHEYDPVCGSDMSTYANECTLCMKIREGGHNIKIIRNGPCGG | –
5 | 1e-06 s⁻¹ | – | K50015: KLK5/KLK14 inhibitory peptide (SPINK2 mutant), amino acid sequence SEQ ID NO: 32 (protein) GPQFGLFSKYRTPNCYDTTTHYCSREYDPVCGSDMSTYANECTLCMKIREGGHNIKIIRNGPCGG | –
6 | 0.0015 s⁻¹ | – | K51057: KLK5/KLK7 inhibitory peptide (SPINK2 mutant), amino acid sequence SEQ ID NO: 28 (protein) GPQFGLFSKYRTPNCGTMQGSGCTYHYEPVCGSDMSTYANECTLCMKIREGGHNIKIIRNGPCGG | –
7 | 5e-05 s⁻¹ | – | K50031: KLK5/KLK7 inhibitory peptide (SPINK2 mutant), amino acid sequence SEQ ID NO: 26 (protein) GPQFGLFSKYRTPNCGEYKGRGCYYHYDPVCGSDMSTYANECTLCMKIREGGHNIKIIRNGPCGG | –
8 | 0.0012 s⁻¹ | > 1000 nM | K51005: KLK5/KLK7 inhibitory peptide (SPINK2 mutant), amino acid sequence SEQ ID NO: 24 (protein) GPQFGLFSKYRTPNCMQHARQGCHYDYDPVCGSDMSTYANECTLCMKIREGGHNIKIIRNGPCGG | –
9 | 2.9e-06 s⁻¹ | – | K50062: KLK5 inhibitory peptide (SPINK2 mutant), amino acid sequence SEQ ID NO: 16 (protein) GPQFGLFSKYRTPNCQQYRELGCGRQYDPVCGSDMSTYANECTLCMKIREGGHNIKIIRNGPCGG | –
10 | 1e-06 s⁻¹ | – | K51069: KLK5/KLK14 inhibitory peptide (SPINK2 mutant), amino acid sequence SEQ ID NO: 30 (protein) GPQFGLFSKYRTPNCSQVVETYCNRDYDPVCGSDMSTYANECTLCMKIREGGHNIKIIRNGPCGG | –
11 | 5.7e-05 s⁻¹ | – | K51090: KLK5 inhibitory peptide (SPINK2 mutant), amino acid sequence SEQ ID NO: 18 (protein) GPQFGLFSKYRTPNCDEIGKYGCGRSYDPVCGSDMSTYANECTLCMKIREGGHNIKIIRNGPCGG | –
12 | 1.8e-05 s⁻¹ | – | K50055: KLK5 inhibitory peptide (SPINK2 mutant), amino acid sequence SEQ ID NO: 8 (protein) GPQFGLFSKYRTPNCANTMKQDCTREYDPVCGSDMSTYANECTLCMKIREGGHNIKIIRNGPCGG | –
13 | 0.00029 s⁻¹ | – | K50016: KLK5 inhibitory peptide (SPINK2 mutant), amino acid sequence SEQ ID NO: 12 (protein) GPQFGLFSKYRTPNCSQWQYSSCDRVYDPVCGSDMSTYANECTLCMKIREGGHNIKIIRNGPCGG | –
14 | 0.00027 s⁻¹ | – | K50032: KLK5 inhibitory peptide (SPINK2 mutant), amino acid sequence SEQ ID NO: 6 (protein) GPQFGLFSKYRTPNCLNWTDHQCERDYDPVCGSDMSTYANECTLCMKIREGGHNIKIIRNGPCGG | –
